Data taken from article PMC8624154.

Target: recombinant extracellular domain of rabies virus glycoprotein (RABVG, CVS strain) with T4 fibritin t (rabies virus (CVS strain))
Test: SEC; rRABVG on Superdex 200 10/300 GL after HisTrap; single peak

Substance: recombinant extracellular domain of rabies virus glycoprotein (RABVG, CVS strain) with T4 fibritin t (domain or fragment)
- stoichiometry N: 3
